Assay results from PMC12329532, “GAPDH heme delivery to Indoleamine 2,3-dioxygenase 1 involves their complex formation and complementary charge pairing at the protein-protein interface” (The Journal of Biological Chemistry, 2025).
One block for each binder: values may come before it.

Tests used:
[1] = molecular target: T1, N-terminally His6-tagged human IDO1 (indoleamine 2,3-dioxygenase 1), purified apo-IDO1 (human, UniProt P14902 1-403, Alexa Fluor 488 on Cys groups (in the fluorescence polarisation assay only)); assay: cross-linking; proteins bound to each other at RT for 30 min, then 100-fold excess of DSSO for 15 min at RT; 50 mM HEPES pH 7.4, 100 mM NaCl; trypsin digest and MS-cleavable XL-MS; conditions: both partners purified
T1 construct: human indoleamine 2,3-dioxygenase 1, cloned in the pHis-parallel1 vector; About 0.1 mol residual heme per mol protein; no effort was made to remove it; also called His6-IDO1; wild-type purified IDO1; source: E. coli BL21 (DE3), purified (Ni-NTA)
T1 sequence (P14902 whole entry): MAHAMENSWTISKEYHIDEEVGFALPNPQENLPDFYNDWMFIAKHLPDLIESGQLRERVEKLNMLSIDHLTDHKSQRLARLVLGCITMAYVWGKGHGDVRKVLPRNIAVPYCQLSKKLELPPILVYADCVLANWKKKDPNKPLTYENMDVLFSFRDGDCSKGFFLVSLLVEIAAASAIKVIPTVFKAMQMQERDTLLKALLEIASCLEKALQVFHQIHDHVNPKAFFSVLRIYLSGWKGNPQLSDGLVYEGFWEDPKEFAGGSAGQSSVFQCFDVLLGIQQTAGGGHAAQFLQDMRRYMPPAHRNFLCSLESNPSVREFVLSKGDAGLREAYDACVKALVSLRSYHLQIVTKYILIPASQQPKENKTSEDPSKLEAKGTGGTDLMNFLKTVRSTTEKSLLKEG

[2] = molecular target: FLAG-tagged IDO1 K101A expressed in HEK293T cells (human, UniProt P14902 1-403, K101A); assay: cell-based or functional assay
FLAG-tagged IDO1 K101A expressed in HEK293T cells, sequence (P14902 whole entry K101A): as the sequence (P14902 whole entry) above, with K101A counted along it

[3] = molecular target: FLAG-tagged IDO1 K101D expressed in HEK293T cells (human, UniProt P14902 1-403, K101D); assay: cell-based or functional assay
FLAG-tagged IDO1 K101D expressed in HEK293T cells, sequence (P14902 whole entry K101D): as the sequence (P14902 whole entry) above, with K101D counted along it

binding result [1]: binds
B1: rabbit GAPDH protein (Sigma #G2267) (enzyme)
chain: not shown
notes: rabbit glyceraldehyde 3-phosphate dehydrogenase; MS data were searched against P46406; The printed cross-linked residues K334 and K215 fit human GAPDH P04406; also called glyceraldehyde 3-phosphate dehydrogenase; source: bought: Sigma #G2267

14C heme counts in the IDO1 immunoprecipitates, relative to wild-type IDO1 [2]: 68 % decrease
IDO1 catalytic activity of cell supernatants, relative to wild type [2]: 65 % reduced
L-Kyn buildup in the culture medium over a 5 h period, relative to wild-type IDO1 [2]: ~60 % less
14C heme counts in the IDO1 immunoprecipitates, relative to wild-type IDO1 [3]: 68 % decrease
IDO1 catalytic activity of cell supernatants, relative to wild type [3]: 65 % reduced
L-Kyn buildup in the culture medium over a 5 h period, relative to wild-type IDO1 [3]: ~60 % less
B2: GAPDH of HEK293T cells (native) (enzyme)
chain: not shown
